Test [1] deals with T1, Recombinant Fc-extracellular domain fusion of human Jagged-2 (Homo sapiens, UniProt Q9Y219). Description: ELISA. On the technique in general: In an ELISA, binding on a coated surface is turned into a signal by an enzyme label.
The target in test [2] is T1, Recombinant Fc-extracellular domain …. In words: ELISA. This is another data set of the same source.

Data on three molecules can be found in PMC6511873 (Nucleic Acids Research, 2019).

T1 sequence (Q9Y219 27-1080): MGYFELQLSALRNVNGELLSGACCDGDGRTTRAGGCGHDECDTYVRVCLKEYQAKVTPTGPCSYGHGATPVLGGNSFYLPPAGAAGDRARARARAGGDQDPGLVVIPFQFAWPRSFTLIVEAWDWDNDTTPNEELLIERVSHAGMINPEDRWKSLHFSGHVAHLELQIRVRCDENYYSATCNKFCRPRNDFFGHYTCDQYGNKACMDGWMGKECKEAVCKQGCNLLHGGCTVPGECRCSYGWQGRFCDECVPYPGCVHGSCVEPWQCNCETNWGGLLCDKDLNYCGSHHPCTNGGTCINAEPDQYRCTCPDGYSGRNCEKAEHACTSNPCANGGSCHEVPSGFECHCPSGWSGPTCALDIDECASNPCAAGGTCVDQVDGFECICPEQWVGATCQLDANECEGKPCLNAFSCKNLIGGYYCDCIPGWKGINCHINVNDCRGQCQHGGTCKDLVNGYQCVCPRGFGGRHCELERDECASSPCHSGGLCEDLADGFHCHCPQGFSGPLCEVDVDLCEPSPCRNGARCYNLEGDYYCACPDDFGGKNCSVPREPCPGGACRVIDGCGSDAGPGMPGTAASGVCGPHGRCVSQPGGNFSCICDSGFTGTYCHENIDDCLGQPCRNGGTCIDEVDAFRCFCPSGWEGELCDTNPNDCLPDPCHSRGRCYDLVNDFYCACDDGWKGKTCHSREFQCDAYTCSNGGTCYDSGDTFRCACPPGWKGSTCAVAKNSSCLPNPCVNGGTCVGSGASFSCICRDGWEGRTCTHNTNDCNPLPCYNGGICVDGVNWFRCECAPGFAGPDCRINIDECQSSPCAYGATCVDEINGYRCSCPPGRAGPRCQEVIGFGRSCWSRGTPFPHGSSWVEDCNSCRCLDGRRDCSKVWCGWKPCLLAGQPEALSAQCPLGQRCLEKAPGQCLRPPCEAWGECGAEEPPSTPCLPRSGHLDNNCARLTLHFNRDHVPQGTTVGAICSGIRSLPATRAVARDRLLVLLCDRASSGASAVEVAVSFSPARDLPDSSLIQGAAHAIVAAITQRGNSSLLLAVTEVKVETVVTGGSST

B1: Fab J2/F/R7 (purified) (Fab, V domains shown)
VH: EVQLVESGGGLVQPGGSLRLSCAASGFNIYSSSMHWVRQAPGKGLEWVAYISPSYSYTYYADSVKGRFTISADTSKNTAYLQMNSLRAEDTAVYYCARSYWYSHYAWWWASYSVVGIDYWGQGTLVTVSS
VL: DIQMTQSPSSLSASVGDRVTITCRASQSVSSAVAWYQQKPGKAPKLLIYSASSLYSGVPSRFSGSRSGTDFTLTISSLQPEDFATYYCQQYASYPITFGQGTKVEIK
Take B1: in test [1], the EC50 (as a rule, the concentration giving half of the maximal effect) amounted to 24.6 nM.

B2: Fab J2/F/R6 (purified) (Fab, V domains shown)
VH: EVQLVESGGGLVQPGGSLRLSCAASGFNLSYSSMHWVRQAPGKGLEWVAYISPSYGYTSYADSVKGRFTISADTSKNTAYLQMNSLRAEDTAVYYCARAHWSSYVSGGWAYPHHSGMDYWGQGTLVTVSS
VL: DIQMTQSPSSLSASVGDRVTITCRASQSVSSAVAWYQQKPGKAPKLLIYSASSLYSGVPSRFSGSRSGTDFTLTISSLQPEDFATYYCQQSYASVLITFGQGTKVEIK
B2: the binding result in test [2] was “binds”.

B3: Fab J2/F/R4 (purified) (Fab, V domains shown)
VH: EVQLVESGGGLVQPGGSLRLSCAASGFNLYSSYIHWVRQAPGKGLEWVAYISPSYGYTYYADSVKGRFTISADTSKNTAYLQMNSLRAEDTAVYYCARYYYSGWAVYAGMDYWGQGTLVTVSS
VL: DIQMTQSPSSLSASVGDRVTITCRASQSVSSAVAWYQQKPGKAPKLLIYSASSLYSGVPSRFSGSRSGTDFTLTISSLQPEDFATYYCQQWHHPPAPITFGQGTKVEIK
Regarding B3, the binding result in test [2] is listed as “binds”.
